T1: 14mer peptide NAIGRGKWWRPSGP, equivalent to residues Asn92 to Pro105 of sclerostin loop 2 (Homo sapiens)
T1 construct: loop 2 of sclerostin; also called second peptide; source: synthetic peptide, synthesized on solid support (array)
T1 chain: NAIGRGKWWRPSGP

T2: 14mer peptide PARLLPNAIGRGKW, equivalent to residues Pro86 to Trp99 of sclerostin loop 2 (Homo sapiens)
T2 construct: loop 2 of sclerostin; also called first peptide; base peptide; source: synthetic peptide, synthesized on solid support (array)
T2 chain: PARLLPNAIGRGKW

T3: 14mer peptide PARLLPNAIGRGKW (Homo sapiens)
T3 construct: stretch of loop 2 of sclerostin; also called base peptide; loop 2 mimicking peptide; source: synthetic peptide, on solid support (peptide array)
T3 chain: PARLLPNAIGRGKW


Tests used:
[1] = target: T1, 14mer peptide NAIGRGKWWRPSGP, …; test: peptide or protein array; truncation array: all truncated variants (3 to 14mer) of two 14mer loop 2 peptides synthesized on solid support; Fab added, modified ELISA with goat anti-human peroxidase coupled secondary antibody; settings: both partners purified
[2] = target: T2, 14mer peptide PARLLPNAIGRGKW, …; test: as above; settings: both partners purified
human sclerostin [3] = target: T4, human sclerostin (Homo sapiens, UniProt Q9BQB4); test: ELISA; plates coated with 5 µg/ml protein in PBS; Fab at 2 µg/ml, 1 h at room temperature; detection with anti-human Fab-alkaline phosphatase and AttoPhos; signal/noise over the background of BSA, N1-CD33-His6 and GST; settings: both partners purified
T4 construct: sclerostin, human; The ELISA may have used the Sf9-made antigen instead; also called hScl

murine sclerostin [4] = target: T5, murine sclerostin (Mus musculus, UniProt Q99P68); test: as above; settings: both partners purified
T5 construct: sclerostin, murine; The ELISA may have used the Sf9-made antigen instead; also called mScl

human sclerostin [5] = target: T4, human sclerostin; test: SPR; ProteOn, 25°C, HBS150T (10 mM HEPES, 150 mM NaCl, pH 7.5, 0.005% Tween 20); sclerostin proteins or variants amine-coupled to about 600 RU on a GLC chip; Fabs as analytes at 100, 75, 50, 25, 12.5 and 6.25 nM (one-shot kinetics); 1:1 Langmuir model; settings: both partners purified
murine sclerostin [6] = target: T5, murine sclerostin; test: as above; settings: both partners purified
human sclerostin [7] = target: T4, human sclerostin; test: cell-based or functional assay
murine sclerostin [8] = target: T5, murine sclerostin; test: cell-based or functional assay
human sclerostin [9] = target: T4, human sclerostin; test: cell-based or functional assay; remark: listed apart in the source
murine sclerostin [10] = target: T5, murine sclerostin; test: cell-based or functional assay; remark: listed apart in the source
[11] = target: T3, 14mer peptide PARLLPNAIGRGKW; test: peptide or protein array; peptides synthesised on solid support (overlapping, replacement and truncation libraries); Fab detected by a modified ELISA with goat anti-human peroxidase-coupled secondary antibody; settings: both partners purified
human sclerostin [12] = target: T4, human sclerostin; test: SPR; ProteOn, 25°C, HBS150T (10 mM HEPES, 150 mM NaCl, pH 7.5, 0.005% Tween 20); sclerostin proteins or variants amine-coupled to about 600 RU on a GLC chip; Fabs as analytes at 100, 75, 50, 25, 12.5 and 6.25 nM (one-shot kinetics); 1:1 Langmuir model; settings: both partners purified; remark: listed apart in the source
murine sclerostin [13] = target: T5, murine sclerostin; test: as above; settings: both partners purified; remark: listed apart in the source

T5 sequence (Q99P68 24-211): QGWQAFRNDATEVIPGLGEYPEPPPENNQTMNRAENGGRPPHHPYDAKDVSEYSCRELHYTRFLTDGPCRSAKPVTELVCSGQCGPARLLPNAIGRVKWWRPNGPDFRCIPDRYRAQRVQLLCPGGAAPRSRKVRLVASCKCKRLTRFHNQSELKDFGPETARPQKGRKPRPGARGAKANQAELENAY
T4 sequence (Q9BQB4 24-213): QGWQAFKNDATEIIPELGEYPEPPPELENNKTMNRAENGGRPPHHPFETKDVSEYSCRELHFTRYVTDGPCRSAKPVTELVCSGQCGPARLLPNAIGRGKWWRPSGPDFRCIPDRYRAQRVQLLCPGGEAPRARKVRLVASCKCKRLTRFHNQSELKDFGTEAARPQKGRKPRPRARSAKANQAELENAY

Binder | binding result [2] | ELISA signal/noise ratio (fold background) (human sclerostin [3]) | ELISA signal/noise ratio (fold background) (murine sclerostin [4]) | Kd (human sclerostin [5]) | koff (human sclerostin [5]) | kon (human sclerostin [5]) | Kd (murine sclerostin [6]) | koff (murine sclerostin [6]) | kon (murine sclerostin [6]) | binding result [11] | other results
Fab AbD09097 (Fab, V domains shown, also called ancestor Fab; source: E. coli, periplasmic expression, purified by the hexahistidine-tag) VH: QVQLVESGGGLVQPGGSLRLSCAASGFTFTNYYMHWVRQAPGKGLEWVSTIAYDGSSTYYADSVKGRFTISRDNSKNTLYLQMNSLRAEDTAVYYCARWFTDDIWGQGTLVTVSS VL: not shown | binds |  |  |  |  |  |  |  |  |  | binding result [1]: binds
Fab AbD12685 (Fab, V domains shown, source: E. coli, periplasmic expression, purified via hexahistidine-tag) VH: QVQLVESGGGLVQPGGSLRLSCAASGFTFTNYYMHWVRQAPGKGLEWVSTIAYDGSSTYYADSVKGRFTISRDNSKNTLYLQMNSLRAEDTAVYYCARWFTDDIWGQGTLVTVSS VL: DIVLTQSPATLSLSPGERATLSCRASQSISSNELAWYQQKPGQAPRLLIYDTSNRATGVPARFSGSGSGTDFTLTISSLEPEDFAVYYCQQDYTFPLTFGQGTKVEIK |  | 61 fold background | 46 fold background | 56 nM | 0.001 s⁻¹ | 20400 M⁻¹ s⁻¹ | 145 nM | 0.00029 s⁻¹ | 13000 M⁻¹ s⁻¹ |  | 
Fab AbD09097 (Fab, V domains shown, format Fab-Thr-MH with a thrombin site (-FLVPRGS-) between CH1 and the tags; kappa light chain; From the HuCAL GOLD phage library, panned on murine sclerostin; also called ancestor Fab AbD09097; HCA230Z (as full-length IgG, AbD Serotec); source: E. coli, periplasmic expression, purified via hexahistidine-tag) VH: QVQLVESGGGLVQPGGSLRLSCAASGFTFTNYYMHWVRQAPGKGLEWVSTIAYDGSSTYYADSVKGRFTISRDNSKNTLYLQMNSLRAEDTAVYYCARWFTDDIWGQGTLVTVSS VL: not shown |  | 34 fold background | 39 fold background |  |  |  |  |  |  | binds | Wnt1 reporter gene assay (HEK293TSA M50, luciferase): fold change of the IC50 of human sclerostin for inhibition of Wnt1 activity with 500 nM Fab; the blocked pair is sclerostin and LRP5/6 (human sclerostin [7]): 6.4 fold; Wnt1 reporter gene assay (HEK293TSA M50, luciferase): fold change of the IC50 of murine sclerostin for inhibition of Wnt1 activity with 500 nM Fab; the blocked pair is sclerostin and LRP5/6 (murine sclerostin [8]): 12.6 fold; Wnt1 reporter gene assay with 20 nM human sclerostin and 0-670 nM AbD09097: EC50 of the rescue of Wnt1 activity (human sclerostin [9]): 197 nM; Wnt1 reporter gene assay with 20 nM murine sclerostin and 0-670 nM AbD09097: EC50 of the rescue of Wnt1 activity (murine sclerostin [10]): 46 nM; Kd (human sclerostin [12]): 260 nM; koff (human sclerostin [12]): 0.0016 s⁻¹; kon (human sclerostin [12]): 6600 M⁻¹ s⁻¹; Kd (murine sclerostin [13]): 46 nM; koff (murine sclerostin [13]): 0.00018 s⁻¹; kon (murine sclerostin [13]): 4400 M⁻¹ s⁻¹
Fab AbD12684 (Fab, V domains shown, consensus motif -QQDXXFPI- (X: His, Glu, Val or Ser); source: E. coli, periplasmic expression, purified via hexahistidine-tag) VH: QVQLVESGGGLVQPGGSLRLSCAASGFTFTNYYMHWVRQAPGKGLEWVSTIAYDGSSTYYADSVKGRFTISRDNSKNTLYLQMNSLRAEDTAVYYCARWFTDDIWGQGTLVTVSS VL: not shown |  | 73 fold background | 53 fold background | 32 nM | 0.00073 s⁻¹ | 25300 M⁻¹ s⁻¹ | 15 nM | 0.00025 s⁻¹ | 18400 M⁻¹ s⁻¹ |  | 
Fab AbD12681 (Fab, V domains shown, consensus motif -QQDXXFPI- (X: His, Glu, Val or Ser); source: E. coli, periplasmic expression, purified via hexahistidine-tag) VH: QVQLVESGGGLVQPGGSLRLSCAASGFTFTNYYMHWVRQAPGKGLEWVSTIAYDGSSTYYADSVKGRFTISRDNSKNTLYLQMNSLRAEDTAVYYCARWFTDDIWGQGTLVTVSS VL: DIVLTQSPATLSLSPGERATLSCRASQSISSNELAWYQQKPGQAPRLLIYDTSNRATGVPARFSGSGSGTDFTLTISSLEPEDFAVYYCQQDHEFPITFGQGTKVEIK |  | 44 fold background | 26 fold background | 66 nM | 0.0016 s⁻¹ | 27400 M⁻¹ s⁻¹ | 35 nM | 0.00054 s⁻¹ | 17000 M⁻¹ s⁻¹ |  | 
Fab AbD12682 (Fab, V domains shown, as the light chain of Dm1 up to the Cys before CDR3L; as the light chain of Dm1 from Thr97 (Kabat) to the end; heavy chain extension as in Dm1; source: E. coli, periplasmic expression, purified by the hexahistidine-tag) VH: QVQLVESGGGLVQPGGSLRLSCAASGFTFTNYYMHWVRQAPGKGLEWVSTIAYDGSSTYYADSVKGRFTISRDNSKNTLYLQMNSLRAEDTAVYYCARWFTDDIWGQGTLVTVSS VL: not shown | binds |  |  |  |  |  |  |  |  |  | 
Fab AbD12683 (Fab, V domains shown, carries a tyrosine at position 3 of CDR3L; source: E. coli, periplasmic expression, purified via hexahistidine-tag) VH: QVQLVESGGGLVQPGGSLRLSCAASGFTFTNYYMHWVRQAPGKGLEWVSTIAYDGSSTYYADSVKGRFTISRDNSKNTLYLQMNSLRAEDTAVYYCARWFTDDIWGQGTLVTVSS VL: not shown |  | 64 fold background | 28 fold background | 53 nM | 0.00033 s⁻¹ | 6400 M⁻¹ s⁻¹ | < 1 nM | < 1e-06 s⁻¹ | 3400 M⁻¹ s⁻¹ | binds | 
Fab AbD12683 (Fab, V domains shown, as the light chain of Dm1 up to the Cys before CDR3L; as the light chain of Dm1 from Thr97 (Kabat) to the end; heavy chain extension as in Dm1; source: E. coli, periplasmic expression, purified by the hexahistidine-tag) VH: QVQLVESGGGLVQPGGSLRLSCAASGFTFTNYYMHWVRQAPGKGLEWVSTIAYDGSSTYYADSVKGRFTISRDNSKNTLYLQMNSLRAEDTAVYYCARWFTDDIWGQGTLVTVSS VL: not shown | binds |  |  |  |  |  |  |  |  |  | 
Fab AbD12687 (Fab, V domains shown, source: E. coli, periplasmic expression, purified via hexahistidine-tag) VH: QVQLVESGGGLVQPGGSLRLSCAASGFTFTNYYMHWVRQAPGKGLEWVSTIAYDGSSTYYADSVKGRFTISRDNSKNTLYLQMNSLRAEDTAVYYCARWFTDDIWGQGTLVTVSS VL: DIVLTQSPATLSLSPGERATLSCRASQSISSNELAWYQQKPGQAPRLLIYDTSNRATGVPARFSGSGSGTDFTLTISSLEPEDFAVYYCQQDVVMPITFGQGTKVEIK |  | 57 fold background | 50 fold background | 228 nM | 0.0047 s⁻¹ | 23300 M⁻¹ s⁻¹ | 120 nM | 0.0017 s⁻¹ | 16000 M⁻¹ s⁻¹ |  | 
Fab AbD12682 (Fab, V domains shown, consensus motif -QQDXXFPI- (X: His, Glu, Val or Ser); source: E. coli, periplasmic expression, purified via hexahistidine-tag) VH: QVQLVESGGGLVQPGGSLRLSCAASGFTFTNYYMHWVRQAPGKGLEWVSTIAYDGSSTYYADSVKGRFTISRDNSKNTLYLQMNSLRAEDTAVYYCARWFTDDIWGQGTLVTVSS VL: not shown |  | 57 fold background | 44 fold background | 23 nM | 0.00066 s⁻¹ | 32000 M⁻¹ s⁻¹ | 13 nM | 0.00025 s⁻¹ | 22000 M⁻¹ s⁻¹ | binds | 
